Results from publication PMC2701625.

Biological target: purified human hsp90 (human) (UniProt P07900)
Assay: cross-linking

stoichiometry N: 2
Substance: purified human hsp90 (from UniProt P07900 1-732) (natural protein)
